Laboratory results taken from US20130266574A1 (Regeneron, published 2013).
Blank lines part the entries; values can stand above or below the binder they belong to.

Assays:
[1] = target: T1, amino acid residues 26-148 of human ANGPTL4 fused in-line to mouse IgG2a (hANGPTL4-mFc) (human); test: SPR (Biacore), 25° C., pH 7.2, antigen captured by anti-mFc
T1 construct: contains the N-terminal coiled-coil region
T1 chain: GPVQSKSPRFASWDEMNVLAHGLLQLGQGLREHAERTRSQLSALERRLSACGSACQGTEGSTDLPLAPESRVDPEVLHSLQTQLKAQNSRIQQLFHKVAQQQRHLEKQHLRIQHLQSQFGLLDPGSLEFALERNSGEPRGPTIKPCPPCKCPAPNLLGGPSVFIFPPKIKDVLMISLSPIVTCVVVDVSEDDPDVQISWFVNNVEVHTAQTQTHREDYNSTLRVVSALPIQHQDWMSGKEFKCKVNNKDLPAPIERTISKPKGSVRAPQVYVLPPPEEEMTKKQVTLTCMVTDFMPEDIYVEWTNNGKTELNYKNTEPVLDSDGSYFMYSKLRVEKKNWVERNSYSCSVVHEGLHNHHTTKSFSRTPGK
Method: (§1) Kinetic analysis was performed to measure kₐ and kd, and KD values and half-life of antigen/antibody complex dissociation were calculated. The results are shown in Table 4 (H1H268P) and Table 5 (H1H284P).

[2] = target: T2, cynomolgus monkey ANGPTL4 N-terminal region (amino acid residues 1-130 of SEQ ID NO:490) with a C-terminal … (cynomolgus monkey (Macaca fascicularis), UniProt Q9BY76 26-130 (human entry)); test: SPR (Biacore), 25° C., pH 7.2, antigen amino-coupled 1,028 RU
T2 construct: also called MfANGPTL4(1-130)-His
T2 chain: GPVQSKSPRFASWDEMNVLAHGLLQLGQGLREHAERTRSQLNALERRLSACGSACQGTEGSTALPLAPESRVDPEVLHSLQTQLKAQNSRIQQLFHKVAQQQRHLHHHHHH
Method: as §1

[3] = target: T3, hANGPTL4 peptide (R34-L66 of SEQ ID NO:476) (human); test: SPR (Biacore), antibody captured on anti-human Fc, peptide injected
T3 peptide: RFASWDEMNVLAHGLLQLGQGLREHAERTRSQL
Method: (§2) Further, the binding affinities of H1H268P and H1H284P for various ANGPTL3 and ANGPTL4 peptides were also determined by BIACORE™ system. Briefly, H1H268P (1348±11 RU) and H1H284P (868±13 RU) were captured over anti-human Fc surface and various concentrations (62.5 nM-500 nM) of the hANGPTL3 and hANGPTL4 peptides were injected. […] Kinetic analysis was performed to measure kₐ and kd, and KD values and half-life of antigen/antibody complex dissociation were calculated. NB: No binding under the experimental conditions described.

[4] = target: T4, N-terminally biotinylated hANGPTL4 peptide (R34-L66 of SEQ ID NO:476) (human, N-terminal biotin); test: as above
T4 construct: also called hANGPTL4-Nterm biotin
T4 peptide: T3 peptide
Method: as §2

[5] = target: T5, hANGPTL3 peptide (R36-I68 of SEQ ID NO:485) (human); test: as above
T5 peptide: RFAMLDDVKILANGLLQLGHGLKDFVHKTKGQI
Method: as §2

[6] = target: T6, N-terminally biotinylated hANGPTL3 peptide (R36-I68 of SEQ ID NO:485) (human, N-terminal biotin); test: as above
T6 construct: also called hANGPTL3-Nterm biotin
T6 peptide: T5 peptide
Method: as §2

[7] = target: T1, amino acid residues 26-148 of human …; test: SPR (Biacore T100), hANGPTL4-mFc captured by anti-mouse IgG, antibody injected, 37° C.
Method: Antigen-antibody binding and dissociation were monitored in real time at 25° C. and 37° C. Kinetic analysis was performed to calculate KD and half-life of antigen/antibody complex dissociation.

[8] = target: T2, cynomolgus monkey ANGPTL4 N-terminal …; test: SPR (Biacore), 25° C., pH 5.75, antigen amino-coupled 1,028 RU; Full mAb, not Fab; pH 5.75
Method: as §1

Kd [1]: 0.629 nM | koff [1]: 9.59e-05 s⁻¹ | kon [1]: 153000 M⁻¹ s⁻¹ | t1/2 [1]: 2 h | Kd [2]: 0.122 nM | koff [2]: 4.76e-05 s⁻¹ | kon [2]: 392000 M⁻¹ s⁻¹ | t1/2 [2]: 4.05 h | Kd [3]: 56.3 nM | koff [3]: 0.000365 s⁻¹ | kon [3]: 6490 M⁻¹ s⁻¹ | t1/2 [3]: 0.533 h | Kd [4]: 64.8 nM | koff [4]: 0.000294 s⁻¹ | kon [4]: 4530 M⁻¹ s⁻¹ | t1/2 [4]: 0.65 h | binding result [5]: no binding (tested: 62.5 nM-500 nM) | binding result [6]: no binding (tested: 62.5 nM-500 nM) | Kd [7]: 0.389 nM | t1/2 [7]: 0.95 h | Kd [8]: 0.0772 nM | koff [8]: 8.24e-05 s⁻¹ | kon [8]: 1.07e+06 M⁻¹ s⁻¹
B1: H1H268P (antibody, V domains shown)
VH: QVQLQESGAGLLKPSETLSLTCTVYGGSFSIHHWTWIRHPPGKGLEWIGEINHRGSTNYNPSLKSRVTISIDTSKNQFSLKLSAVTAADTAVYYCARGLRFLDWLSSYFDYWGQGTLVTVSS
VL: DIQMTQSPSSLSASVGDRVTITCRASQGISDYLAWYQQKPGKVPNLLIYAASALQSGVPSRFSGSGSGTDFTLTISSLQPEDVATYYCQNYNTAPLTFGGGTKVEIK
notes: also called entire H1H268 mAb; Full mAb

Kd [1]: 0.196 nM | koff [1]: 5.36e-05 s⁻¹ | kon [1]: 274000 M⁻¹ s⁻¹ | t1/2 [1]: 3.6 h | Kd [2]: 0.125 nM | koff [2]: 5.83e-05 s⁻¹ | kon [2]: 467000 M⁻¹ s⁻¹ | t1/2 [2]: 3.3 h | binding result [3]: no binding (tested: 500 nM) | binding result [4]: no binding (tested: 500 nM) | binding result [5]: no binding (tested: 62.5 nM-500 nM) | binding result [6]: no binding (tested: 62.5 nM-500 nM) | Kd [7]: 0.349 nM | t1/2 [7]: 1.35 h | Kd [8]: 0.0543 nM
B2: H1H284P (antibody, V domains shown)
VH: QVQLVESGGGVVQPGRSLRLSCAASGFTFSSYGMHWVRQAPGKGLEWMAVISFDGGNKNNADSVKGRFTISRDNSKNTLYLQMNSLRAEDTAVYYCAKEGDRSGHPYFYYYGLDVWGQGTTVTVS
VL: DIQLTQSPSFLSASVGDRVTITCWASQGISSYLAWYQQKPGKAPKLLIYAASTLQSGVPSRFSGSGSETEFTLTISSLQPEDFATYYCQQLHSYPLTFGGGTKVEIK
notes: also called entire H1H284 mAb; Full mAb
